Measured values taken from patent US20240368243A1.

What was measured:
[1] = molecular target: … (SEQ ID NO: 1)-HLA-A*02 complex presented on antigen positive cancer cells (human); assay: cell-based or functional assay
[2] = molecular target: … (SEQ ID NO: 1)-HLA-A*02 complex (soluble, biotinylated) (human); assay: SPR (BIAcore) or BLI (Octet) per Example 3, biotinylated pHLA immobilised, 25 C

Binder	EC50 (mel624), IFN-γ ELISPOT, activation of redirected T cells [1] [nM]	Kd [2] [nM]	t1/2 [2] [h]
ImmTAC molecule comprising a79 (SEQ ID NO: 7) and b64 (SEQ ID NO: 12) (TCR, part only; not given: anti-CD3 scFv, linker, TCR constants, part only) TCR alpha, part: GDAKTTQPNSMESNEEEPVHLPCNHSTISGTDYIHWYRQLPSQGPEYVIHGLTSNVNNRMASLAIAEDRKSSTLILHRATLRDAAVYYCILILGHSRLGNYIATFGKGTKLSVIP TCR beta, part: DGGITQSPKYLFRKEGQNVTLSCEQNLNHDAMYWYRQDPGQGLRLIYYSQIMNDEQKGDIAEGYSVSREKKESFPLTVTSAQKNPTAFYLCASSWWTGGSAPIRFGPGTRLTVT	0.0275	0.138	6.38
ImmTAC molecule comprising a79 (SEQ ID NO: 7) and b71 (SEQ ID NO: 15) (TCR, part only; not given: anti-CD3 scFv, linker, TCR constants, part only) TCR alpha, part: GDAKTTQPNSMESNEEEPVHLPCNHSTISGTDYIHWYRQLPSQGPEYVIHGLTSNVNNRMASLAIAEDRKSSTLILHRATLRDAAVYYCILILGHSRLGNYIATFGKGTKLSVIP TCR beta, part: DGGITQSPKYLFRKEGQNVTLSCEQNLNHDAMYWYRQDPGQGLRLIYYSQIMGDEQKGDIAEGYSVSREKKESFPLTVTSAQKNPTAFYLCASSWWTGGSAPIYFGPGTRLTVT	0.0318	0.087	14.9
ImmTAC molecule comprising a79 (SEQ ID NO: 7) and b73 (SEQ ID NO: 16) (TCR, part only; not given: anti-CD3 scFv, linker, TCR constants, part only) TCR alpha, part: GDAKTTQPNSMESNEEEPVHLPCNHSTISGTDYIHWYRQLPSQGPEYVIHGLTSNVNNRMASLAIAEDRKSSTLILHRATLRDAAVYYCILILGHSRLGNYIATFGKGTKLSVIP TCR beta, part: DGGITQSPKYLFRKEGQNVTLSCEQNLNHDAMYWYRQDPGQGLRLIYYSQIMGDEQKGDIAEGYSVSREKKESFPLTVTSAQKNPTAFYLCASSWWTGGAAPISFGPGTRLTVT	0.0231	0.132	4.6
ImmTAC molecule comprising a28 (SEQ ID NO: 6) and b60 (SEQ ID NO: 19) (TCR, part only; not given: anti-CD3 scFv, linker, TCR constants, part only) TCR alpha, part: GDAKTTQPNSMESNEEEPVHLPCNHSTISGTDYIHWYRQLPSQGPEYVIHGLTSNVNNRMASLAIAEDRKSSTLILHRATLRDAAVYYCILILGHSRAGNYIATFGKGTKLSVIP TCR beta, part: DGGITQSPKYLFRKEGQNVTLSCEQNLNHDAMYWYRQDPGQGLRLIYYSQIMGDEQKGDIAEGYSVSREKKESFPLTVTSAQKNPTAFYLCASSWWTGGASEISFGPGTRLTVT	0.0317	0.261	2.8
ImmTAC molecule comprising a79 (SEQ ID NO: 7) and b66 (SEQ ID NO: 23) (TCR, part only; not given: anti-CD3 scFv, linker, TCR constants, part only) TCR alpha, part: GDAKTTQPNSMESNEEEPVHLPCNHSTISGTDYIHWYRQLPSQGPEYVIHGLTSNVNNRMASLAIAEDRKSSTLILHRATLRDAAVYYCILILGHSRLGNYIATFGKGTKLSVIP TCR beta, part: DGGITQSPKYLFRKEGQNVTLSCEQNLNHDAMYWYRQDPGQGLRLIYYSQIMGDEQKGDIAEGYSVSREKKESFPLTVTSAQKNPTAFYLCASSPWTGGSAPIRFGPGTRLTVT	0.0167	0.089	9.16
ImmTAC molecule comprising a28 (SEQ ID NO: 6) and b74 (SEQ ID NO: 17) (TCR, part only; not given: anti-CD3 scFv, linker, TCR constants, part only) TCR alpha, part: GDAKTTQPNSMESNEEEPVHLPCNHSTISGTDYIHWYRQLPSQGPEYVIHGLTSNVNNRMASLAIAEDRKSSTLILHRATLRDAAVYYCILILGHSRAGNYIATFGKGTKLSVIP TCR beta, part: DGGITQSPKYLFRKEGQNVTLSCEQNLNHDAMYWYRQDPGQGLRLIYYSQIMGDEQKGDIAEGYSVSREKKESFPLTVTSAQKNPTAFYLCASSWWTGGASPIRFGPGTRLTVT	0.0243	0.182	3.7
ImmTAC molecule comprising a109 (SEQ ID NO: 8) and b46 (SEQ ID NO: 11) (TCR, part only; not given: anti-CD3 scFv, linker, TCR constants, part only) TCR alpha, part: GDAKTTQPNSMESNEEEPVHLPCNHSTISGTDYIHWYRQLPSQGPEYVIHGLTSNVNNRMASLAIAEDRKSSTLILHRATLRDAAVYYCILILGHSRLGNYQATFGKGTKLSVIP TCR beta, part: DGGITQSPKYLFRKEGQNVTLSCEQNLNHDAMYWYRQDPGQGLRLIYYSQIMGDEQKGDIAEGYSVSREKKESFPLTVTSAQKNPTAFYLCASSWWTGGSAPIRFGPGTRLTVT	0.0601	0.17	7.31
ImmTAC molecule comprising a28 (SEQ ID NO: 6) and b75 (SEQ ID NO: 20) (TCR, part only; not given: anti-CD3 scFv, linker, TCR constants, part only) TCR alpha, part: GDAKTTQPNSMESNEEEPVHLPCNHSTISGTDYIHWYRQLPSQGPEYVIHGLTSNVNNRMASLAIAEDRKSSTLILHRATLRDAAVYYCILILGHSRAGNYIATFGKGTKLSVIP TCR beta, part: DGGITQSPKYLFRKEGQNVTLSCEQNLNHDAMYWYRQDPGQGLRLIYYSQIMGDEQKGDIAEGYSVSREKKESFPLTVTSAQKNPTAFYLCASSWWTGGSAPISFGPGTRLTVT	0.0139	0.214	5.1

Binders with a lower Kd [2], results first:

EC50 (mel624), IFN-γ ELISPOT, activation of redirected T cells [1] [nM]	Kd [2] [nM]	t1/2 [2] [h]	Binder
0.0172	0.0118	58.3	ImmTAC molecule comprising a79 (SEQ ID NO: 7) and b76 (SEQ ID NO: 24) (TCR, part only; not given: anti-CD3 scFv, linker, TCR constants, part only) TCR alpha, part: GDAKTTQPNSMESNEEEPVHLPCNHSTISGTDYIHWYRQLPSQGPEYVIHGLTSNVNNRMASLAIAEDRKSSTLILHRATLRDAAVYYCILILGHSRLGNYIATFGKGTKLSVIP TCR beta, part: DGGITQSPKYLFRKEGQNVTLSCEQNLNHDAMYWYRQDPGQGLRLIYYSQIMGDEQKGDIAEGYSVSREKKESFPLTVTSAQKNPTAFYLCASSWWTGGSSPIRFGPGTRLTVT
0.0134	0.083	8.3	ImmTAC molecule comprising a28 (SEQ ID NO: 6) and b57 (SEQ ID NO: 10) (TCR, part only; not given: anti-CD3 scFv, linker, TCR constants, part only) TCR alpha, part: GDAKTTQPNSMESNEEEPVHLPCNHSTISGTDYIHWYRQLPSQGPEYVIHGLTSNVNNRMASLAIAEDRKSSTLILHRATLRDAAVYYCILILGHSRAGNYIATFGKGTKLSVIP TCR beta, part: DGGITQSPKYLFRKEGQNVTLSCEQNLNHDAMYWYRQDPGQGLRLIYYSQIMGDEQKGDIAEGYSVSREKKESFPLTVTSAQKNPTAFYLCASSWWTSGASPISFGPGTRLTVT
0.0398	0.052	20.4	ImmTAC molecule comprising a79 (SEQ ID NO: 7) and b69 (SEQ ID NO: 14) (TCR, part only; not given: anti-CD3 scFv, linker, TCR constants, part only) TCR alpha, part: GDAKTTQPNSMESNEEEPVHLPCNHSTISGTDYIHWYRQLPSQGPEYVIHGLTSNVNNRMASLAIAEDRKSSTLILHRATLRDAAVYYCILILGHSRLGNYIATFGKGTKLSVIP TCR beta, part: DGGITQSPKYLFRKEGQNVTLSCEQNLNHDAMYWYRQDPGQGLRLIYYSQIMGDEQKGDIAEGYSVSREKKESFPLTVTSAQKNPTAFYLCASSWWTGGSAEIRFGPGTRLTVT
0.0229	0.079	10.8	ImmTAC molecule comprising a79 (SEQ ID NO: 7) and b63 (SEQ ID NO: 22) (TCR, part only; not given: anti-CD3 scFv, linker, TCR constants, part only) TCR alpha, part: GDAKTTQPNSMESNEEEPVHLPCNHSTISGTDYIHWYRQLPSQGPEYVIHGLTSNVNNRMASLAIAEDRKSSTLILHRATLRDAAVYYCILILGHSRLGNYIATFGKGTKLSVIP TCR beta, part: DGGITQSPKYLFRKEGQNVTLSCEQNLNHDAMYWYRQDPGQGLRLIYYSQIVGDEQKGDIAEGYSVSREKKESFPLTVTSAQKNPTAFYLCASSWWTGGSAPIRFGPGTRLTVT
0.012	0.079	8.9	ImmTAC molecule comprising a28 (SEQ ID NO: 6) and b58 (SEQ ID NO: 21) (TCR, part only; not given: anti-CD3 scFv, linker, TCR constants, part only) TCR alpha, part: GDAKTTQPNSMESNEEEPVHLPCNHSTISGTDYIHWYRQLPSQGPEYVIHGLTSNVNNRMASLAIAEDRKSSTLILHRATLRDAAVYYCILILGHSRAGNYIATFGKGTKLSVIP TCR beta, part: DGGITQSPKYLFRKEGQNVTLSCEQNLNHDAMYWYRQDPGQGLRLIYYSQIMGDEQKGDIAEGYSVSREKKESFPLTVTSAQKNPTAFYLCASSWWTGGSSPISFGPGTRLTVT
0.0263	0.047	12.7	ImmTAC molecule comprising a79 (SEQ ID NO: 7) and b67 (SEQ ID NO: 13) (TCR, part only; not given: anti-CD3 scFv, linker, TCR constants, part only) TCR alpha, part: GDAKTTQPNSMESNEEEPVHLPCNHSTISGTDYIHWYRQLPSQGPEYVIHGLTSNVNNRMASLAIAEDRKSSTLILHRATLRDAAVYYCILILGHSRLGNYIATFGKGTKLSVIP TCR beta, part: DGGITQSPKYLFRKEGQNVTLSCEQNLNHDAMYWYRQDPGQGLRLIYYSQIMGDEQKGDIAEGYSVSREKKESFPLTVTSAQKNPTAFYLCASSWWTSGSAPIRFGPGTRLTVT
0.0236	0.0577	16.9	ImmTAC molecule comprising a79 (SEQ ID NO: 7) and b75 (SEQ ID NO: 20) (TCR, part only; not given: anti-CD3 scFv, linker, TCR constants, part only) TCR alpha, part: GDAKTTQPNSMESNEEEPVHLPCNHSTISGTDYIHWYRQLPSQGPEYVIHGLTSNVNNRMASLAIAEDRKSSTLILHRATLRDAAVYYCILILGHSRLGNYIATFGKGTKLSVIP TCR beta, part: DGGITQSPKYLFRKEGQNVTLSCEQNLNHDAMYWYRQDPGQGLRLIYYSQIMGDEQKGDIAEGYSVSREKKESFPLTVTSAQKNPTAFYLCASSWWTGGSAPISFGPGTRLTVT
0.0138	0.0779	8.6	ImmTAC molecule comprising a79 (SEQ ID NO: 7) and b77 (SEQ ID NO: 18) (TCR, part only; not given: anti-CD3 scFv, linker, TCR constants, part only) TCR alpha, part: GDAKTTQPNSMESNEEEPVHLPCNHSTISGTDYIHWYRQLPSQGPEYVIHGLTSNVNNRMASLAIAEDRKSSTLILHRATLRDAAVYYCILILGHSRLGNYIATFGKGTKLSVIP TCR beta, part: DGGITQSPKYLFRKEGQNVTLSCEQNLNHDAMYWYRQDPGQGLRLIYYSQIMGDEQKGDIAEGYSVSREKKESFPLTVTSAQKNPTAFYLCASSWWTGGAAPIRFGPGTRLTVT
0.0106	0.0231	28.7	ImmTAC molecule comprising a79 (SEQ ID NO: 7) and b58 (SEQ ID NO: 21) (TCR, part only; not given: anti-CD3 scFv, linker, TCR constants, part only) TCR alpha, part: GDAKTTQPNSMESNEEEPVHLPCNHSTISGTDYIHWYRQLPSQGPEYVIHGLTSNVNNRMASLAIAEDRKSSTLILHRATLRDAAVYYCILILGHSRLGNYIATFGKGTKLSVIP TCR beta, part: DGGITQSPKYLFRKEGQNVTLSCEQNLNHDAMYWYRQDPGQGLRLIYYSQIMGDEQKGDIAEGYSVSREKKESFPLTVTSAQKNPTAFYLCASSWWTGGSSPISFGPGTRLTVT
